Substrate in this data set: NC(=O)C[C@H](N)C(=O)O
The data set is described as follows: L-asparaginase kinetics, NADH-dependent enzyme-coupled assay. Type of data set: biochemical, E. coli. As to conditions: other: pH 7.5, 37° C., 3 nM enzyme. As for the experimental part: The catalytic activity of the clones was determined using a spectroscopic NADH-dependent enzyme-coupled assay (Fernandez, et al. (2013) Int. J. Clin. Exp. Med. 6:478-487; Hejazi, et al. (2002) Biochem. J. 364:129-136), which measures the production of L-aspartic acid (Asp) through the 1:1 oxidation of reduced NADH. The conversion of NADH to NAD was measured spectrophotometrically as a decrease in absorbance at 340 nm at 37° C. All measurements were taken in triplicate in a buffer containing 100 mM Tris pH 7.5, 0.4 mM α-ketoglutarate and 0.4 mM NADH with 50 nM (hASNase1, hN-gC); 10 nM (gpASNase1, gN-hC, 63-hC, 64-hC, 65-hC, SA-hC) or 3 nM (ansB) enzyme. Glutamic-oxalacetic transaminase (Sigma) and malic dehydrogenase (Sigma) were helper enzymes for the coupled enzymatic reactions; 5 and 1 unit were used, respectively. Data were fit to the Michaelis-Menten equation using SigmaPlot (Systat Software Inc). Due to the cooperative nature of hASNase1, this enzyme was analyzed using the Hill equation.

This is an account of results in US11578315B2, “Truncated guinea pig L-asparaginase variants and methods of use” (THE BOARD OF TRUSTEES OF THE UNIVERSITY OF ILLINOIS, priority 2017, dated 2023).

B1: E. coli L-asparaginase ansB (type II) (Escherichia coli K-12) (protein)
chain: LPNITILATGGTIAGGGDSATKSNYTVGKVGVENLVNAVPQLKDIANVKGEQVVNIGSQDMNDNVWLTLAKKINTDCDKTDGFVITHGTDTMEETAYFLDLTVKCDKPVVMVGAMRPSTSMSADGPFNLYNAVVTAADKASANRGVLVVMNDTVLDGRDVTKTNTTDVATFKSVNYGPLGYIHNGKIDYQRTPARKHTSDTPFDVSKLNELPKVGIVYNYANASDLPAKALVDAGYDGIVSAGVGNGNLYKSVFDTLATAAKTGTAVVRSSRVPTGATTQDAEVDDAKYGFVASGTLNPQKARVLLQLALTQTKDPQQIQQIFNQY
notes: made in house
For orientation: Km means the substrate concentration at which the rate is half of its maximum. In general, kcat refers to the number of substrate molecules converted per active site and unit of time at saturation. One may read the kcat/Km as the second-order rate constant that governs catalysis at low substrate concentration. With B1, the Km was 11 ± 1 µM, the kcat stood at 48 ± 1 s⁻¹ and the kcat/Km stood at 4.4e+06 M⁻¹ s⁻¹.
